The target of assay [1] is T1, recombinant OspA of Borrelia garinii PBi (OspA-garinii) (Borrelia garinii PBi, UniProt Q09089 17-273).
T1 construct: also called OspA B. garinii; not shown: N-terminal GST tag (pGEX-4T-3) or His tag (pET45-His)
The assay can be described thus: SPR, Biacore 3000; antibody amine-coupled on CM5 chip, OspA in solution. (In general: In SPR one partner is held on a chip, and binding of the other changes the refractive index at the surface.)

Assay [2] has as its target T2, recombinant OspA of Borrelia burgdorferi B31 (OspA-burgdorferi) (Borrelia burgdorferi B31, UniProt P0CL66 17-273).
T2 construct: also called OspA B. burgdorferi; not shown: N-terminal GST tag (pGEX-4T-3) or His tag (pET45-His)
Described as above.

Assay [3] deals with T3, recombinant OspA of Borrelia afzelii ACA-1 (OspA-afzelii) (Borrelia afzelii ACA-1, UniProt P0A3N7 17-273).
T3 construct: also called OspA B. afzelii; not shown: N-terminal GST tag (pGEX-4T-3) or His tag (pET45-His)
T3 sequence: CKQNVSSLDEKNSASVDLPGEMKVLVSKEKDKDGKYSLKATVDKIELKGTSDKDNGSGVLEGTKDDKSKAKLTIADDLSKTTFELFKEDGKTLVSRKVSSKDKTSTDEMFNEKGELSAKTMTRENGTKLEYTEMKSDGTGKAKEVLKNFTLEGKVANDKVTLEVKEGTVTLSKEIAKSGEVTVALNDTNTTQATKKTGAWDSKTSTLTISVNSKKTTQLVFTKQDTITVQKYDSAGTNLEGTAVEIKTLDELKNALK
The assay is described as above.

The target in assay [4] is T4, a.a.18-141.
T4 construct: not shown: N-terminal His tag and vector-derived linker of pET45-His
T4 chain: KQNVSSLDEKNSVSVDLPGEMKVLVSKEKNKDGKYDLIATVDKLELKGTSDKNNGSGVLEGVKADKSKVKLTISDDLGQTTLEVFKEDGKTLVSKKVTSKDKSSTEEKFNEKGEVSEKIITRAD
As to the kind of experiment: ELISA on plate-coated OspA protein form [panel B]. (In general: In an ELISA, binding on a coated surface is turned into a signal by an enzyme label.)

Assay [5] addresses T5, a.a. 106-273.
T5 construct: not shown: N-terminal His tag and vector-derived linker of pET45-His
T5 chain: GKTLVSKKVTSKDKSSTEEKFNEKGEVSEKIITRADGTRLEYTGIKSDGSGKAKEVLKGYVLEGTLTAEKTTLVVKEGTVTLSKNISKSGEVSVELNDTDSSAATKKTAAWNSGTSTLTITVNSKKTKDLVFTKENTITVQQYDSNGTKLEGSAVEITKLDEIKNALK
The assay can be described thus: ELISA on plate-coated OspA protein form [panel B].

In assay [6] the target is T6, a.a. 71-273.
T6 construct: not shown: N-terminal His tag and vector-derived linker of pET45-His
T6 chain: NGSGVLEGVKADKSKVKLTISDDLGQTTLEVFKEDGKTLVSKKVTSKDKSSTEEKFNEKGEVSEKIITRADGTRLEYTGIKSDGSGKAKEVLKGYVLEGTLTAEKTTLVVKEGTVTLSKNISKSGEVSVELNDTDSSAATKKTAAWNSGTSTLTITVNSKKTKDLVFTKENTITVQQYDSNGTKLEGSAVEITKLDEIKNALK
As to the kind of experiment: ELISA on plate-coated OspA protein form [panel B].

For assay [7], the target named is T7, OspA (a.a. 18-273) mutant with D249A and S250A point mutations, N-terminal His tag (Borrelia burgdorferi, UniProt P0CL66 18-273).
T7 construct: not shown: N-terminal His tag of the pET45 vector
The assay can be described thus: ELISA on plate-coated OspA protein form [panel B].

Assay [8] addresses T8, a.a. 178-273.
T8 construct: not shown: N-terminal His tag and vector-derived linker of pET45-His
T8 chain: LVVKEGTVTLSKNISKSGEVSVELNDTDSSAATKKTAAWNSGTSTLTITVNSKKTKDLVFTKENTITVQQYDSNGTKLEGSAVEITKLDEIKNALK
The assay can be described thus: ELISA on plate-coated OspA protein form [panel B].

The target in assay [9] is T9, a.a. 18-177.
T9 construct: not shown: N-terminal His tag and vector-derived linker of pET45-His
T9 chain: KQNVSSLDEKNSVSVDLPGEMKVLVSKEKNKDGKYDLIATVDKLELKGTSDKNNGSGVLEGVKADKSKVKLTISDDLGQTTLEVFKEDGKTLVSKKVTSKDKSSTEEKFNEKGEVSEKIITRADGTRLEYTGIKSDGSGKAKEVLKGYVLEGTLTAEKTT
The assay can be described thus: ELISA on plate-coated OspA protein form [panel B].

For assay [10], the target named is T10, a.a. 142-273.
T10 construct: not shown: N-terminal His tag and vector-derived linker of pET45-His
T10 chain: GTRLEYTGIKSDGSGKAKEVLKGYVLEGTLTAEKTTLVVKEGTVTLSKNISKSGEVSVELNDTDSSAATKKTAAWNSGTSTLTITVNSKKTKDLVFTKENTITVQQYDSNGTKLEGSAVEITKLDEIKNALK
As to the kind of experiment: ELISA on plate-coated OspA protein form [panel B].

The target in assay [11] is T1, recombinant OspA of Borrelia garinii …. As to the kind of experiment: SPR, Biacore 3000.
Assay [12] addresses T2, recombinant OspA of Borrelia …. As to the kind of experiment: SPR, Biacore 3000.
The target of assay [13] is T3, recombinant OspA of Borrelia afzelii …. As to the kind of experiment: SPR, Biacore 3000.
Assay [14] has as its target native OspA on Borrelia burgdorferi B31 spirochetes (Borrelia burgdorferi B31, UniProt P0CL66 17-273). The assay can be described thus: cell-based or functional assay.
Assay [15] addresses T11, native OspA on Borrelia afzelii BO23 spirochetes (Borrelia afzelii BO23, UniProt P0A3N7 17-273).
T11 sequence: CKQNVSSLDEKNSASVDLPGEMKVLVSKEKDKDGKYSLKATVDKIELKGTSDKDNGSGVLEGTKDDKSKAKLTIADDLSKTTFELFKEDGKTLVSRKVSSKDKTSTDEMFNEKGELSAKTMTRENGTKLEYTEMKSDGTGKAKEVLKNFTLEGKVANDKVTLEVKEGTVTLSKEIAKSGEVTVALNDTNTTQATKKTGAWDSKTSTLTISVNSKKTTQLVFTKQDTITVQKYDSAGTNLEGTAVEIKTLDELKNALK
The assay can be described thus: cell-based or functional assay.

The target in assay [16] is native OspA on Borrelia garinii PBi spirochetes (Borrelia garinii PBi, UniProt Q09089 17-273). The assay can be described thus: cell-based or functional assay.
Sequence of native OspA on Borrelia garinii PBi spirochetes (Q09089 17-273 limits assumed): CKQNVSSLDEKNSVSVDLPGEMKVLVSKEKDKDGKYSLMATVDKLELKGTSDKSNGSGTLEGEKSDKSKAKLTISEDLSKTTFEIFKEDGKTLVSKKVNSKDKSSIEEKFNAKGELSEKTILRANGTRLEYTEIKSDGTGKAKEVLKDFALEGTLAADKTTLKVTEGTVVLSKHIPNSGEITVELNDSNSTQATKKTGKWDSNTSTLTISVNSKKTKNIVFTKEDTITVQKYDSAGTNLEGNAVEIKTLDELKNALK

T1 sequence (Q09089 17-273 limits assumed): as above

B1: anti-OspA antibody 857-2 (antibody, V domains shown)
VH: EVQLVQSGEEVKKPGESLKISCKGSGYKFSSYWIGWVRQMPGKGLEWMGIIFPGDSDKRYSPSFQGQVTISADKSISTVYLQWSSLKASDTAMYYCARHITTHTYRGFFDFWGQGTLVTVSS
VL: AIQLTQSPSSLSASVGDRVTITCRASQDISSALAWYQQKPGKAPKLLIYDVSSLESGVPSRFSGSGSGTDFTLTISSLQPEDFATYYCQQFNGYPHRLTFGGGTKVEIK
notes: also called HuMab 857-2
One may read the Kd as the constant that tells how readily two partners part at equilibrium. With B1, the Kd is 1 nM in assay [1]; 0.65 nM in assay [2]; 1.6 nM in [3]; not above 36 nM in [11]; not above 22 nM in assay [12]; not above 36 nM in [13]. In addition, the binding result in assay [4] is listed as “binds”; in [5], “binds”; in assay [6], “binds”; in assay [7], “binds”; in assay [8], “no binding”; in assay [9] it was “binds”. Besides, the binding result in [10] is “no binding”. For the same molecule, the “Borreliacidal activity (EC50 (nM))” value in assay [14] turned out to be 2 nM; in assay [15], 2 nM; in [16], 41.6 nM.

B2: anti-OspA antibody 319-44 (antibody, V domains shown)
VH: EMQLVQSGAEVKKPGESLKISCKGSGYIFATYWIGWVRQMPGKGLEWMGIIYPNDSDTRYSPSFQGQVTISADKSINTAYLQWSSLKASDTAMYYCARTRWYFDLWGRGTLVTVSS
VL: not shown
notes: also called HuMab 319-44; 319-44 wild-type antibody
For B2, the Kd was determined as 674 nM in assay [1], 328 nM in assay [2] and 1200 nM in assay [3]. Besides, the binding result in assay [4] is on record as “no binding”; in assay [5] it was “binds”; in assay [6], “binds”; in assay [7] it was “no binding”; in assay [8], “binds”; in assay [9], “no binding”. Moreover, the binding result in assay [10] is reported as “binds”. For the same molecule, the “Borreliacidal activity (EC50 (nM))” value in [14] was less than 0.4 nM; in [15], 4 nM.

B3: anti-OspA antibody 212-55 (antibody, V domains shown)
VH: EVQLVESGGGLVQPGGSLRLSCAASGFTFRNYWMDWVRQAPGKGLEWVANIKQDGSVKYYVDSVEGRFTISRDNAKNSLFLQMNSLRAEDTAVYYCARDGYSGYDSVGFDIWGQGTMVTVSS
VL: EIVLTQSPGTLSLSPGERATLSCRASQSVSSSYLAWYQQKPGQAPRLLISDTSSRATGIPDRFSGSGSGTDFTLTISRLEPEDFAVYYCQQYGSSPYTFGQGTKLEIK
notes: also called HuMab 212-55
As to B3, the dissociation constant (Kd) in assay [1] was 480 nM. Also, the figures for the binding result in assay [8] and in assay [10] were “no binding” and “binds”, respectively.

B4: anti-OspA antibody 221-7 (antibody, V domains shown)
VH: EVQLVQSGSEVKKPGESLKISCQVSGYSFTSYWIGWVRQMPGKGLERVGFIYPGDSDTRYSPSFQGQVTISADKSISTAYLQWSSLKASDTAMYYCARGILRYFDWFLDYWGQGTLVTVSS
VL: AIQLTQSPSSLSASVGDRVTITCRASQGISSGSAWYQQKPGKAPKLLIYDVSSLESGVPSRFSGSGSGTEFTLTISSLQPEDFATYYCQQFNSYLLTFGGGTKVEIK
notes: also called HuMab 221-7
Take B4: the Kd in assay [1] is 1.3 nM; in assay [2] it was 0.66 nM; in assay [3], 7.8 nM; in [11] it was not above 36 nM; in [12], not above 22 nM; in assay [13], not above 36 nM. Besides, the binding result in assay [4] was “binds”; in assay [5] it was “no binding”; in [6], “binds”; in assay [7] it was “binds”; in assay [8], “no binding”; in [9] it was “binds”. For the same molecule, the binding result in [10] is given as “no binding”. For the same molecule, the “Borreliacidal activity (EC50 (nM))” value is less than 0.4 nM in [14], 0.9 nM in assay [15] and 6.6 nM in assay [16].
